US20220324956A1

What was measured:
[1] = molecular target: recombinant human osteopontin protein (GST-OPN-his, purified in house) (human) (UniProt P10451); assay: cell-based or functional assay
[2] = substrate: OPN antigen peptide YGLRSKS labeled with biotin (mouse and human (same sequence around the thrombin cleavage site)); assay: direct ELISA, biotinylated peptide on avidin-coated plate, purified IgG serially diluted, 4-parameter fit

Chain of UniProt P10451 (P10451 17-314): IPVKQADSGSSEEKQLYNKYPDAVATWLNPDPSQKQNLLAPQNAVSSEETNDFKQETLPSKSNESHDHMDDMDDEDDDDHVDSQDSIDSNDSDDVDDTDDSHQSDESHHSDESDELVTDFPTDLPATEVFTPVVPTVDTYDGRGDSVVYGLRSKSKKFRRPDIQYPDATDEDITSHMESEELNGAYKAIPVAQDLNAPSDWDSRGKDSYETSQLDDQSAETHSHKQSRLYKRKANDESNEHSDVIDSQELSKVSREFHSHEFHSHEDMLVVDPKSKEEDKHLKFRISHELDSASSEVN

Row | % inhibition of thrombin cleavage of human OPN-FL (OPN-R generated, OPN-R specific ELISA) [1] [%] | EC50 [2] [ng/mL] | Binder
1 | 82 | 2.6 | A2 rabbit monoclonal anti-osteopontin antibody (antibody, V domains shown) VH: QSVKESEGGLFKPTDTLTLTCKASGFTVSSYDMGWLRQAPGNGLESIGAIGSDGSEYYVSWARGRTAITRNTNQNTVTLKMTSLTAADTATYFCARDSHYSYGYDYDIWGPGTLVTVSS VL: QVLTQTPSPVSAAVGGTVSISCQSSQSIYSNYLSWYQQKPGQPPKLLIYYASTLASGVPSRFKGSGSGTQFTLTISGVQCDDAATYYCQGTYYVTGWYDAFGGGTEVVVKG
2 | 95.4 | 3.2 | A6 rabbit monoclonal anti-osteopontin antibody (antibody, V domains shown) VH: QSVKESEGGLFKPTDTLTLTCKASGFTVSSYDMGWLRQAPGNGLESIGAIGSDGSEYYVSWARGRTTITRNTNQNTVTLKMTSLTAADTATYFCARDSHYSYGYDYDIWGPGTLVTVSS VL: QVLTQTPSPVSAAVGGTVSISCQSSQSIYSNYLSWYQQKPGQPPKLLIYYASTLASGVPSRFKGSGSGTQFTLTISGVQCDDAATYYCQGTYYVTGWYDAFGGGTEVVVKG
3 | 60.1 | 93.2 | G7 rabbit monoclonal anti-osteopontin antibody (antibody, V domains shown) VH: QSVKESEGGLFKPTDTLTLTCTVSGFSLSSYGVSWVRQAPGNGLEWIGFIDKYGRTHYASWAKSRSTITRNTNENTVTLKMTSLTAADTATFLCARDDYRPAYGFDIWGPGTLVTVSS VL: QVLTQTASPVSAAVGSTVTINCQASQSVYNNNWLSWFQQKPGQPPKQLIYGASTLPSGVSSRFKGSGSGTQFTLTISDVQCDDAATYYCLGGYHWSTADCNVFGGGTEVVVKG
